# Measured values taken from patent US20220064329A1 (Novo Nordisk, published 2022).
# Numbering of substitutions follows the chain as printed.
# T1: FVII(a) variant G117A (human, UniProt P08709 61-466)
# T1 construct: hFVII alanine variant in cell culture supernatant
# T1 sequence: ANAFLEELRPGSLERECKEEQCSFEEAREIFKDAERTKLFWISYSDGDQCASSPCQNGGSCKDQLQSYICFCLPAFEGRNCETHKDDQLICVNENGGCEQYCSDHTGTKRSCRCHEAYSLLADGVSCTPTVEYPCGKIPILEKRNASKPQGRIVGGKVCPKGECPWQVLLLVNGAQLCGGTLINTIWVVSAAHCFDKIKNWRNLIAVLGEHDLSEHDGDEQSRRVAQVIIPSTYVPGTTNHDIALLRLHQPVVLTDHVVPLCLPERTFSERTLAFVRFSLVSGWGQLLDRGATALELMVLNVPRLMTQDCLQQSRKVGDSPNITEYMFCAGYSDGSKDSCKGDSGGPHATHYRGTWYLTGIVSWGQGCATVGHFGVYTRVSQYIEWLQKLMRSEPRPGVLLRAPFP
# T2: FVII(a) variant H115A (human, UniProt P08709 61-466)
# T2 construct: hFVII alanine variant in cell culture supernatant
# T2 sequence: T1 sequence with H115A, A117G
# T3: FVII(a) variant V252A (human, UniProt P08709 61-466)
# T3 construct: hFVII alanine variant in cell culture supernatant
# T3 sequence: T1 sequence with A117G, V252A
# T4: FVII(a) variant V131A (human, UniProt P08709 61-466)
# T4 construct: hFVII alanine variant in cell culture supernatant
# T4 sequence: T1 sequence with A117G, V131A
# T5: FVII(a) variant E394A (human, UniProt P08709 61-466)
# T5 construct: hFVII alanine variant in cell culture supernatant
# T5 sequence: T1 sequence with A117G, E394A
# B1: mAb0842(OA) (antibody, human IgG4 S228P, kappa)
# heavy: QVQLQESGPGLVKPSQTLSLTCTVSGYSISSDSAWSWIRQPPGKGLEWIGYIQYSGSTNYNPSLKSRVTISRDTSKNQFSLKLSSVTAADTAVYYCARSVNYYGNSFAVGYWGQGTLVTVSSASTKGPSVFPLAPCSRSTSESTAALGCLVKDYFPEPVTVSWNSGALTSGVHTFPAVLQSSGLYSLSSVVTVPSSSLGTKTYTCNVDHKPSNTKVDKRVESKYGPPCPPCPAPEFLGGPSVFLFPPKPKDTLMISRTPEVTCVVVDVSQEDPEVQFNWYVDGVEVHNAKTKPREEQFNSTYRVVSVLTVLHQDWLNGKEYKCKVSNKGLPSSIEKTISKAKGQPREPQVYTLPPSQEEMTKNQVSLSCAVKGFYPSDIAVEWESNGQPENNYKTTPPVLDSDGSFFLVSRLTVDKSRWQEGNVFSCSVMHEALHNHYTQKSLSLSLGK
# light: EIVLTQSPATLSLSPGERATLSCRASQGISDYLHWYQQKPGEAPRLLIKYTSQPATGIPARFSGSGSGTDFTLTISSLEPEDFAVYYCQNGHSFPLTFGQGTKLEIKRTVAAPSVFIFPPSDEQLKSGTASVVCLLNNFYPREAKVQWKVDNALQSGNSQESVTEQDSKDSTYSLSSTLTLSKADYEKHKVYACEVTHQGLSSPVTKSFNRGEC
# chain: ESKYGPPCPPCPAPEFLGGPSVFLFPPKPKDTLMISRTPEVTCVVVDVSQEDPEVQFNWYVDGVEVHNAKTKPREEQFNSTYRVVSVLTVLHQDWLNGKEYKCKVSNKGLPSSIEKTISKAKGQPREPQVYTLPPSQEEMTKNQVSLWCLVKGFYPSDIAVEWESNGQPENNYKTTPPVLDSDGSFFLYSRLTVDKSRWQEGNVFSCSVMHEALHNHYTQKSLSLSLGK
# notes: also called monovalent humanized 11F2 antibody; one-armed anti-FVII(a) antibody
# Tests used:
# Assay in all cases: SPR, ratio of KD to KD of WT
# FVII(a) variant G117A = biological target: T1, FVII(a) variant G117A
# Experimental: (§1) The running buffer was prepared by diluting 10-fold the 10×HBS-P buffer (supplied by GE Healthcare) and supplemented with 1 mg/ml BSA and 5 mM CaCl2 to give 10 mM HEPES, 150 mM NaCl, 0.05% v/v Polysorbate 20, pH 7.4, 5 mM CaCl2, 1 mg/ml bovine serum albumin (BSA). […] Regeneration of the chip was achieved using 10 mM HEPES, 150 mM NaCl, 20 mM EDTA, 0.05 v/v Polysorbate 20, pH 7.4. Binding data were analysed according to a 1:1 Kinetic model and steady state analysis using BiaEvaluation 4.1 supplied by the manufacturer (Biacore AB, Uppsala, Sweden). Wherever possible, ka, kd and KD values from 1:1 kinetic fitting model are reported. […] An amino acid residue is considered a hot-spot residue if substitution of that amino acid residue with alanine results in an affinity reduction of ten (10) fold or more relative to the wild type.
# FVII(a) variant H115A = biological target: T2, FVII(a) variant H115A
# Experimental: as §1
# FVII(a) variant V252A = biological target: T3, FVII(a) variant V252A
# Experimental: as §1
# FVII(a) variant V131A = biological target: T4, FVII(a) variant V131A
# Experimental: as §1
# FVII(a) variant E394A = biological target: T5, FVII(a) variant E394A
# Experimental: as §1
binder,measurement,setting,value
B1,Fold diff (Variant/WT),FVII(a) variant G117A,1 fold
same,Fold diff (Variant/WT),FVII(a) variant H115A,26.8 fold
same,Fold diff (Variant/WT),FVII(a) variant V252A,0.9 fold
same,Fold diff (Variant/WT),FVII(a) variant V131A,17.1 fold
same,Fold diff (Variant/WT),FVII(a) variant E394A,2.6 fold
